Experimental findings from patent US20250376532A1 are described below.

This assay has as its target rDR5-IgG4-Fc (UniProt O14763). The experiment in a line: BLI.

For AMG655, the dissociation constant (Kd) worked out at 0.102 nM.

One may read the Kd as the equilibrium constant for the complex coming apart. Low readings indicate a tighter complex, high ones a looser complex.
